Measurements as given in patent publication US20220056094A1 (JIANGSU HENGRUI MEDICINE, published 2022).
Like-named read-outs stand apart in the source and are kept apart here.

How the values were obtained:
[1] = biological target: T1, high-affinity receptor IL-2Rα/β/γ on CTLL2 cells (mouse-derived cell line) (mouse, UniProt P01590 22-268; P16297 27-539; P34902 23-369); assay: cell-based or functional assay
T1 sequence (looked up) 1: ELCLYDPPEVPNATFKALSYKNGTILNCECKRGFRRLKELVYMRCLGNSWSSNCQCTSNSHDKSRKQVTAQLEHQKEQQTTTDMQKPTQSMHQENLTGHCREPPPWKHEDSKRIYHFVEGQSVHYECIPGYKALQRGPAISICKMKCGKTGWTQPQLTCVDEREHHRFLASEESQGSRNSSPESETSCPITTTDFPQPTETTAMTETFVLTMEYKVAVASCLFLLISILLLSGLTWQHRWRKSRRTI
T1 sequence (looked up) 2: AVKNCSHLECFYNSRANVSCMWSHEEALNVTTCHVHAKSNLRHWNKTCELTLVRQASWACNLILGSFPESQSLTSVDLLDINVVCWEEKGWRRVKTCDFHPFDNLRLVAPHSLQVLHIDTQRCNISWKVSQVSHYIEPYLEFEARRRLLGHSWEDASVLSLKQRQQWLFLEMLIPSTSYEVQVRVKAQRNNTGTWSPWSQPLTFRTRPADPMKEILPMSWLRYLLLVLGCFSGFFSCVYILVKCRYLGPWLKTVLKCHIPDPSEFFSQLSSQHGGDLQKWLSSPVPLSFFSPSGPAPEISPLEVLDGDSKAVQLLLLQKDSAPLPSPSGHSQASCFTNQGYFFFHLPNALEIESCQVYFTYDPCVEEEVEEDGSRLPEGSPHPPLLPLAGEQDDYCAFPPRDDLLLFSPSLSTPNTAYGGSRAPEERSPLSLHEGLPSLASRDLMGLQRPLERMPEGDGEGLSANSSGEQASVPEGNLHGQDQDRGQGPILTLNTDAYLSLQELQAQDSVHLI
T1 sequence (looked up) 3: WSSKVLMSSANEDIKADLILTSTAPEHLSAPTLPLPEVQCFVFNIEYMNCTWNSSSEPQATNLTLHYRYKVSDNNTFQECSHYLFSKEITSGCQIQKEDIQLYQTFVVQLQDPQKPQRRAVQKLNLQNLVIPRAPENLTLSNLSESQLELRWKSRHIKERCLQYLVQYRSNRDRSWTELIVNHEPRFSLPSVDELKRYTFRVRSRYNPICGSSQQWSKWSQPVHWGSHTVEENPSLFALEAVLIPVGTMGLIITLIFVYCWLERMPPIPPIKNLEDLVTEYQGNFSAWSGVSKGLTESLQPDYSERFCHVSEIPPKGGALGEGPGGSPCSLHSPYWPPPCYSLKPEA

[2] = biological target: T2, IL-2Rβ/γ-Fc heterodimer (IL-2Rβ-Fc-hole with IL-2Rγ-Fc-knob); assay: SPR (Biacore), IL-2Rβ/γ-Fc captured on Protein A chip, 1:1 model
T2 construct: Co-expressed in HEK293 cells and purified with Protein A and Superdex 200
Method: The Protein A sensor chip (GE, Cat #29127556) of the Biacore instrument (Biacore T200, GE) was used to capture IL-2Rβ/γ-Fc, wherein IL-2Rβ/γ-Fc was diluted with 1×HBS-EP to 1 μg/mL, and flowed at a flow rate of 10 μL/min for 30 seconds. […] The Biacore instrument (Biacore X100, GE) was used to detect the reaction in real time, to obtain association and dissociation curves. After each cycle of dissociation was completed, the chip was washed and regenerated with 10 mM Gly-HCl pH 1.5.

[3] = biological target: T3, his-tagged human IL-2Rα recombinant protein (SinoBiological, Cat #10165-H08H) (human, UniProt P01589 22-213); assay: ELISA, his-tagged IL-2Rα coated, HRP anti-IL-2 polyclonal detection
T3 construct: Bought protein; also called IL-2Rα (His Tag)
T3 sequence: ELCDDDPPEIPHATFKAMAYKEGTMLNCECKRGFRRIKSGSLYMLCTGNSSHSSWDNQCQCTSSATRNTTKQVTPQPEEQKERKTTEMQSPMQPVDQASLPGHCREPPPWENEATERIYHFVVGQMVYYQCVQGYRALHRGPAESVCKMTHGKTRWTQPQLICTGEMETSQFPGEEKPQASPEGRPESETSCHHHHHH
Method: 96-well microtiter plate was coated with 2 μg/mL his-tagged IL-2Rα recombinant protein (SinoBiological, Cat #10165-H08H), and incubated overnight at 4° C. The plate was washed with washing solution for three times, 250 μl per well. For each time of washing, the plate was shaken for 10 seconds to ensure sufficient washing. 200 μl/well blocking solution was added and incubated at room temperature for 2 hours. The plate was washed with washing solution for three times, 250 μl per well. For each time of washing, the plate was shaken for 10 seconds to ensure sufficient washing. […] The plate was incubated for 1 hour at room temperature. The plate was washed with washing solution for three times, 250 μl per well. […] The plate was incubated for 1 hour at room temperature. The plate was washed with washing solution for three times, 250 μl per well. 100 μl TMB was added to each well, and the reaction was performed for 15 minutes in the dark. 50 μl of 0.16 M sulfuric acid was added to each well.

[4] = biological target: T1, high-affinity receptor IL-2Rα/β/γ on …; assay: cell-based or functional assay; remark: listed apart in the source
[5] = biological target: T4, medium-affinity receptor IL-2Rβ/γ on human cells (Mo7e cell line; human CD8+T and NK cells) (human, UniProt P14784 27-551; P31785 23-369); assay: cell-based or functional assay
T4 sequence (looked up) 1: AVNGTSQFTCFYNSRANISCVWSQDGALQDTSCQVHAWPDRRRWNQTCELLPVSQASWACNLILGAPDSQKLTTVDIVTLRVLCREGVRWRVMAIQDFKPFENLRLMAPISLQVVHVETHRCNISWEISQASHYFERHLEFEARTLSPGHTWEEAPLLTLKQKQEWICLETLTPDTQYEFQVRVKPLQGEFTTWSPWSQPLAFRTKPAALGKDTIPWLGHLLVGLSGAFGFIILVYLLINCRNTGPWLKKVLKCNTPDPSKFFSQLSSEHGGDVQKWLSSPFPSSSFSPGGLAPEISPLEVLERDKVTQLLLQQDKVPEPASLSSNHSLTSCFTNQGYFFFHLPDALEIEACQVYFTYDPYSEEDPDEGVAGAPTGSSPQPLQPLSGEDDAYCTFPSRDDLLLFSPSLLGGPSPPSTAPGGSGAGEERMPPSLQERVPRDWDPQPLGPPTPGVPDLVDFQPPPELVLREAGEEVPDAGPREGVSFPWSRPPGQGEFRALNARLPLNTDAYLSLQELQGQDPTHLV
T4 sequence (looked up) 2: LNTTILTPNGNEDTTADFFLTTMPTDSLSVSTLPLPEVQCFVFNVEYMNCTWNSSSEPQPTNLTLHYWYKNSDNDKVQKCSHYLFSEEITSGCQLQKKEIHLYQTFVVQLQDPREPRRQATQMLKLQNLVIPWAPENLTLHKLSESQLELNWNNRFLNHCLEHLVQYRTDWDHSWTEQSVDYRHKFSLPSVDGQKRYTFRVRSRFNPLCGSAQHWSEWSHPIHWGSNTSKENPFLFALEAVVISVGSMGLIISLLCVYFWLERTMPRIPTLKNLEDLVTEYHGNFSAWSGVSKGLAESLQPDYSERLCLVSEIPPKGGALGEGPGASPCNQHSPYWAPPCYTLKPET

[6] = biological target: T5, IL-2 receptor IL-2Rα/β/γ on human peripheral blood Treg cells (human, UniProt P01589 22-272; P14784 27-551; P31785 23-369); assay: cell-based or functional assay
T5 sequence (looked up) 1: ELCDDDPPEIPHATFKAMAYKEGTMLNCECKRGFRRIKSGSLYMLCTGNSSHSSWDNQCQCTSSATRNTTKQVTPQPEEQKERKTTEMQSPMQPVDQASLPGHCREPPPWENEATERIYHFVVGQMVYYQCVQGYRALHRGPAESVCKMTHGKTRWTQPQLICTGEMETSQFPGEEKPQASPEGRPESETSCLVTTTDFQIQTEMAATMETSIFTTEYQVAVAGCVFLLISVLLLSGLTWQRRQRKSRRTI
T5 sequence (looked up) 2: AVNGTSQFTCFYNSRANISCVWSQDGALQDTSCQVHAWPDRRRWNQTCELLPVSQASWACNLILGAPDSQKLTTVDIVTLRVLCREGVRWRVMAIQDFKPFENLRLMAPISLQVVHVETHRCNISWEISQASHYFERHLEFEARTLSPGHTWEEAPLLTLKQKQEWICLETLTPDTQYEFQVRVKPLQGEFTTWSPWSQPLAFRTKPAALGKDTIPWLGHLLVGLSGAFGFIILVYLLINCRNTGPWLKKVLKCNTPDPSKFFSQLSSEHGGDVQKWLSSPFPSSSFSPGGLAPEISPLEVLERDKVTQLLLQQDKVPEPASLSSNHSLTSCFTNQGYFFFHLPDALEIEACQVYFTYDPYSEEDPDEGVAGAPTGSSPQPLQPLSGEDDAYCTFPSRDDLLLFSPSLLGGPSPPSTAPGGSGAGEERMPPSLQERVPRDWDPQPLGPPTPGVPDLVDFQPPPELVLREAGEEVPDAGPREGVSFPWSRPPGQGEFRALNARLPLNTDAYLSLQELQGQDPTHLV
T5 sequence (looked up) 3: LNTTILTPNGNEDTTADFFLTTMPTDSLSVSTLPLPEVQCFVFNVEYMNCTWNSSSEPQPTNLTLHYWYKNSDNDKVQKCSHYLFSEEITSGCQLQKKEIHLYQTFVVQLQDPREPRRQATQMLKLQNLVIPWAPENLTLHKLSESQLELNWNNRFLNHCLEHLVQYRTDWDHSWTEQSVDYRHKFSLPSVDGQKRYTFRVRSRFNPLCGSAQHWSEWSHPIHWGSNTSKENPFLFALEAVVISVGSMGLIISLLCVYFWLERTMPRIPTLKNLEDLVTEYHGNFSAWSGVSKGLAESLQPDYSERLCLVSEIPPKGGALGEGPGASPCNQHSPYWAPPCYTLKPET

[7] = biological target: T1, high-affinity receptor IL-2Rα/β/γ on …; assay: cell-based or functional assay; remark: listed apart in the source

T2 sequence (chain, as listed by the source limits assumed, chain 1 of 2): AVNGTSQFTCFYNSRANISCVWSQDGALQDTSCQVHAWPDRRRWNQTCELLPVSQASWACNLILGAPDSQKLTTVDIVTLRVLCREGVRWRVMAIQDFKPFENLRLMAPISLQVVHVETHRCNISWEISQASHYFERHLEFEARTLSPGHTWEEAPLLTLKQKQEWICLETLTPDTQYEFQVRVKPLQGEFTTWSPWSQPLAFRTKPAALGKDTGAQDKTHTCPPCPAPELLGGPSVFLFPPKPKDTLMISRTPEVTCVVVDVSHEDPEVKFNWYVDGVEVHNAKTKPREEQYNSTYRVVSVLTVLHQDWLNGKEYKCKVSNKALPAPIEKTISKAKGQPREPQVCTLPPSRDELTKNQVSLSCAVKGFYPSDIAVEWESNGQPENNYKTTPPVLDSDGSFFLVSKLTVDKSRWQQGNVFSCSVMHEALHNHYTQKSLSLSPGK
T2 sequence (chain, as listed by the source limits assumed, chain 2 of 2): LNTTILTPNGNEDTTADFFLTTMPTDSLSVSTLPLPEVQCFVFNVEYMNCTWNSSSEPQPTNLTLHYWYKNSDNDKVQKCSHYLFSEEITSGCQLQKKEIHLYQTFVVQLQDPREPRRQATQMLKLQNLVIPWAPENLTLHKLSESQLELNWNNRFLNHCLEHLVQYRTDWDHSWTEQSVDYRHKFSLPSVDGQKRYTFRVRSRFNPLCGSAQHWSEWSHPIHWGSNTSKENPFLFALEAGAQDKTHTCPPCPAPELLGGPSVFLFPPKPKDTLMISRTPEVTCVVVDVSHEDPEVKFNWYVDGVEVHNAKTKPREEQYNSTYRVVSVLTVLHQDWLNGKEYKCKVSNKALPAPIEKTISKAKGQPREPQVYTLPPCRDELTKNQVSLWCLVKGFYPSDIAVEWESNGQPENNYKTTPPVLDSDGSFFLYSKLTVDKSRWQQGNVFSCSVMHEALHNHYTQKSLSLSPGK

B1: IL-2-03 (Q11C/L132C) (ligand)
chain: MAPTSSSTKKTCLQLEHLLLDLQMILNGINNYKNPKLTRMLTFKFYMPKKATELKHLQCLEEELKPLEEVLNLAQSKNFHLRPRDLISNINVIVLELKGSETTFMCEYADETATIVEFLNRWITFAQSIISTCT
notes: The entry already carries the mutations and C125A and begins with M. Made in E. coli
relative biological activity (CTLL2 cell proliferation) [1]: 162%
Kd [2]: 0.253 nM
koff [2]: 0.000135 s⁻¹
kon [2]: 533000 M⁻¹ s⁻¹
EC50 [3]: 1.53 nM

B2: IL-2-22 (N26Q/N29S/F42A/N71Q/L72G) (ligand)
chain: MAPTSSSTKKTQLQLEHLLLDLQMILQGISNYKNPKLTRMLTAKFYMPKKATELKHLQCLEEELKPLEEVLQGAQSKNFHLRPRDLISNINVIVLELKGSETTFMCEYADETATIVEFLNRWITFAQSIISTLT
EC50 (CTLL2 cell proliferation) [4]: 5.73 nM
relative biological activity (CTLL2 cell proliferation) [4]: 0.9%
EC50 (Mo7e cell proliferation) [5]: 2.84 nM
relative biological activity (Mo7e cell proliferation) [5]: 86%

B3: PEGylated IL-2-24 (ligand)
chain: MAPTSSSTKKTQLQLEHLLLDLQMILQGISNYKNPKLTRMLTFKFYMPKKATELKHLQCLEEELKPLEEVLNLAQSKNFHLRPRDLISRINVIVLELKGSETTFMCEYADETATIVEFLNRWITFAQSIISTLT
modifications: mono-PEGylated with 20 kDa mPEG-butyraldehyde (sodium cyanoborohydride); site not stated
EC50 (STAT5 phosphorylation in human Treg cells) [6]: 6.02 nM
relative biological activity (STAT5 phosphorylation in human Treg cells) [6]: 0.007%

B4: IL-2-07 (F42A/Y45A) (ligand)
chain: MAPTSSSTKKTQLQLEHLLLDLQMILNGINNYKNPKLTRMLTAKFAMPKKATELKHLQCLEEELKPLEEVLNLAQSKNFHLRPRDLISNINVIVLELKGSETTFMCEYADETATIVEFLNRWITFAQSIISTLT
notes: as for B1
relative biological activity (CTLL2 cell proliferation) [1]: 4%
EC50 (STAT5 phosphorylation in CTLL2 cells) [7]: 2.45 nM
relative biological activity (STAT5 phosphorylation in CTLL2 cells) [7]: 0.41%
Kd [2]: 0.261 nM
koff [2]: 0.000215 s⁻¹
kon [2]: 822000 M⁻¹ s⁻¹
